Molecular target: T1, P^His (recombinant RSV A2 phosphoprotein (P) with a Histidine tag at its amino terminus, expressed from pETP … (respiratory syncytial virus, A2 strain, UniProt P03421 1-241))
T1 construct: also called P^His protein; recombinant P protein; not shown: N-terminal Histidine tag from vector pET16b
Experiment: not described at this place (legend of FIG. 10)

Question: Does KLCGMLLITE [peptide N4.10] bind?
Answer: binds

Reference: patent US20040197338A1 (published 2004)
